Experiment [1] addresses murine VCAM-1 (vascular endothelial adhesion molecule-1) (murine) (UniProt P29533). Kind of experiment: bEnd.3 cells, unstimulated against IL-1α-stimulated.
The target is the same in experiment [2]. Kind of experiment: cell-based or functional assay.
Experiment [3] has the same target. The experiment in a line: IL-1α-activated bEnd.3 cells treated with anti-VCAM-1•tTF, bound coaguligand detected with 125I-labeled 10H10.

UniProt P29533, sequence (P29533 25-739): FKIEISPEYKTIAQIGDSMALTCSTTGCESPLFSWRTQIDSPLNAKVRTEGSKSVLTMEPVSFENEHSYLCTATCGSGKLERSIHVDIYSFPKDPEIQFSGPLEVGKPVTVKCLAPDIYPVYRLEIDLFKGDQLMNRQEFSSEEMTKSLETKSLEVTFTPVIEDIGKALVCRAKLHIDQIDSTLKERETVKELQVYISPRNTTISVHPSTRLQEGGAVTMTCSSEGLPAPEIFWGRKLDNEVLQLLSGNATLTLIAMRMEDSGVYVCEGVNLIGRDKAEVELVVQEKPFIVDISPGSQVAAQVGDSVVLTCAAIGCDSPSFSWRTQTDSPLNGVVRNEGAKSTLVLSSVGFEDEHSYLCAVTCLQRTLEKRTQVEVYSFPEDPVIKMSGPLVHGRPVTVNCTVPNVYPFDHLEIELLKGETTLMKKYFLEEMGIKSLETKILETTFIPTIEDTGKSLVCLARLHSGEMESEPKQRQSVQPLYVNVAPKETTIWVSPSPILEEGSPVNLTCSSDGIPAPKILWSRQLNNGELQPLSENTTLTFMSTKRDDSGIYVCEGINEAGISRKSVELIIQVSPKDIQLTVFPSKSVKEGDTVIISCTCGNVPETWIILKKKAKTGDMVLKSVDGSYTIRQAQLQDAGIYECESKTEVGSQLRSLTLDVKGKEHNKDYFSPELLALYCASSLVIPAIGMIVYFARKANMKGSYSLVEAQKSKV

“anti-VCAM-1•tTF coaguligand (MK2.7 anti-VCAM-1 IgG covalently linked through SMPT to truncated human tissue factor) (from UniProt P13726 33-251)” registered an amount bound to unstimulated cells against stimulated cells in experiment [1] of 50 % lower. In experiment [2], this substance gave a Generation of factor Xa (chromogenic assay, S-2765), intact IL-1α-stimulated bEnd.3 cells (ng per 10^4 cells per 60 min) of 3.17; a Generation of factor Xa (chromogenic assay, S-2765), intact unstimulated bEnd.3 cells (ng per 10^4 cells per 60 min) of 1.64; a Generation of factor Xa (chromogenic assay, S-2765), saponin-permeabilized IL-1α-stimulated bEnd.3 cells (ng per 10^4 cells per 60 min) of 98.8; a Generation of factor Xa (chromogenic assay, S-2765), saponin-permeabilized unstimulated bEnd.3 cells (ng per 10^4 cells per 60 min) of 49.2. In experiment [2] (scale: ng of factor Xa per 10,000 cells per 60 min), this substance showed a factor Xa produced by permeabilized IL-1α-stimulated bEnd.3 cells preincubated with coaguligand, no Annexin V of 95. Further, in experiment [3], the amount of anti-TF antibody bound at saturation came out at 8.7 fmol and the molecules of anti-TF antibody bound per cell at saturation (molecules per cell) is 540000.

For the origin of these results see patent US20060141545A1.
